How the values were obtained:
[1] = test system: CCR5 4-finger ZFN-L (ZFP-FokI) (artificial); assay: cell_activity; conditions: with ZFN-R and WT CFTR donor in CCR5-expressing HEK293 Flp-In; 17% with CFTR delta508F donor; NHEJ deletions at endogenous CCR5
[2] = test system: CCR5 4-finger ZFN-R (ZFP-FokI) (artificial); assay: cell_activity; conditions: with ZFN-L and WT CFTR donor in CCR5-expressing HEK293 Flp-In; 17% with CFTR delta508F donor; NHEJ deletions at endogenous CCR5

Row | Sequence | activity (% CCR5-negative cells) [1] | activity (% CCR5-negative cells) [2]
1 | GTCATCCTCATC (double strand) [CCR5 ZFN-L half-site] | 23 | –
2 | AAACTGCAAAAG (double strand) [CCR5 ZFN-R half-site] | – | 23

Reference: patent publication US20140127814
